Literature values, collected in PMC3985519.
pKd: −log10 of the molar value.

Target: von Willebrand factor (Homo sapiens) (UniProt P04275)

pKd: 9.30
Substance: Factor VIII (from UniProt P00451)
